Results as given in patent US20170369590A1 (Genmab, published 2017).
Numbering of substitutions follows the chain as printed.

B1: HuMab 169 (antibody, V domains shown)
VH: QVQLVQSGAEVKKPGASVKVSCKASGYTFTNYGISWVRQAPGQGLEWMGWLSAYSGNTIYAQKLQGRVTMTTDTSTTTAYMELRSLRSDDTAVYYCARDRIVVRPDYFDYWGQGTLVTVSS
VL: EIVLTQSPATLSLSPGERATLSCRASQSVSSYLAWYQQKPGQAPRLLIYDASNRATGIPARFSGSGSGTDFTLTISSLEPEDFAVYYCQQRSNWPRTFGQGTKVEIK
notes: also called TH1014-169; PC1014-169
B2: HuMab 091 (antibody, V domains shown)
VH: QVQLQQWGAGLLKPSETLSLTCAVSGGSFSGYYWTWIRQPPGKGLEWIGEIYHSGDTNYNPSLKSRVTISVDTSKNQFSLKLYSVTAADTAVYYCARLYFGSGIYYLDYWGQGTLVTVSS
VL: DIQMTQSPSSLSASVGDRVTITCRASQGISSWLVWYQQKPEKAPKSLIYAASSLQSGVPSRFSGSGSGTDFTLTISSLQPEDFATYYCQQYNSFPPTFGQGTKVEIK
notes: also called TH1014-091; PC1014-091
B3: HuMab 084 (antibody, V domains shown)
VH: QVQLVQSGAEVKKPGSSVKVSCKASGGTFRTYAINWVRQAPGQGLEWMGRINTVLGIVNHAQKFQGRVTITADKSTNTAYMELNSLRSEDTAVYYCAREKGVDYYYGIEVWGQGTTVTVSS
VL: B2 VL with L11V, V34A, Q38H, E41G, S46L, A50V, S53T, Y91A, P96L, Q100G
notes: also called TH1014-084; PC1014-084
B4: HuMab 132 (antibody, V domains shown)
VH: QVQLVQSGAEVKKPGASVKVSCKASGYTFTSYGISWVRQAPGQGLEWMGWISAYNGNSNYVQKFQGRVTMTTDTTTSTAYMELRSLTSDDTAVYYCAREYSYDSGTYFYYGMDVWGQGTTVTVSS
VL: EIVLTQSPATLSLSPGERATLSCRASQSVSSYLAWYQQKPGQAPRLLIYDASNRATGIPARFSGSGSGTDFTLTISSLEPEDFAVYYCQQRSNWPMYTFGQGTKLEIK
B5: HuMab 159 (antibody, V domains shown)
VH: EVQLVQSGAEVKKPGESLKISCKGSGYNFTSYWIGWVRQMPGKGLEWMGIIYPGDSDTRYSPSFQGQVTISADKSISTAYLQWSSLKASDTAMYYCARWGTYYDILTGYFNWFDPWGQGTLVTVSS
VL: B2 VL with V34A, N92Y, S93I, F94Y, P96W
notes: also called TH1014-159; PC1014-159
B6: HuMab 127 (antibody, V domains shown)
VH: EVQLVQSGAEVKKPGESLTISCKGSGYSFSIYWIGWVRQMPGKGLEWMGIIFPGDSDIRYSPSFQGQVTISADKSISTAYLQWSSLKASDTAMYYCARQPGDWSPRHWYFDLWGRGTLVTVSS
VL: VIWMTQSPSLLSASTGDRVTISCRMSQGISSYLAWYQQKPGKAPELLIYAASTLQSGVPSRFSGSGSGTDFTLTISYLQSEDFATYYCQQYYSFPLTFGGGTKVEIK

target: T1, HER2ECDHis (human, UniProt P04626 23-653, biotinylated in the cross-block ELISA (sites not given)); assay: ELISA; competitor 084
T1 construct: range 1-653; expressed in HEK-293F; also called soluble HER2; biotinylated HER2ECDHis

Going from B1 to B2, the “% binding vs no competitor” value rises from 73% to 100%.

In the case of B3, the “% binding vs no competitor” value is reported as 20%.

target: T1, HER2ECDHis; assay: ELISA; competitor 050
Description: (§1) Next, the ELISA wells were washed with PBST (PBS supplemented with 0.05% Tween-20 [Sigma-Aldrich, Zwijndrecht, The Netherlands]) and blocked for one hour at room temperature (RT) with PBSTC (PBST supplemented 2% [v/v] chicken serum [Gibco, Paisley, Scotland]). The ELISA wells were then washed with PBST and incubated for one hour at RT with HER2ECDHis serially diluted in PBSTC (0.25-2 μg/mL in 2-fold dilutions). […] The plate was thereafter washed with PBST and incubated for one hour with 0.1 μg/mL Streptavidin-poly-HRP (Sanquin, Amsterdam, The Netherlands) diluted in PBST. After washing, the reaction was visualized through a 15 minutes incubation with 2,2′-azino-bis (3-ethylbenzothiazoline-6-sulfonic acid) (ABTS: one ABTS tablet diluted in 50 mL ABTS buffer (Roche Diagnostics, Almere, The Netherlands)) at RT protected from light. The colorization was stopped by adding an equal volume of oxalic acid (Sigma-Aldrich, Zwijndrecht, The Netherlands). Fluorescence at 405 nm was measured on a microtiter plate reader (Biotek Instruments, Winooski, USA).
(§2) Each HER2 antibody was coated to the ELISA wells at the sub-optimal dose that was determined as described above. After blocking of the ELISA wells, the wells were incubated with the predetermined concentration of 1 μg/mL biotinylated HER2ECDHis in the presence or absence of an excess of a second (competitor) HER2 antibody. The ELISA was then performed as described above. […] Percentage competition was then determined as 100 minus the percentage of inhibition.

First: B1
Second: B2
The “% binding vs no competitor” value of the first is lower: 21% for the first, 95% for the second.

With B3 the “% binding vs no competitor” value was 76%.

target: T1, HER2ECDHis; assay: ELISA; competitor C1
Description: as §1, §2

Going from B4 to B5, the “% binding vs no competitor” value falls from 422% to 96%.

For B6, the “% binding vs no competitor” value was 112%.

target: T1, HER2ECDHis; assay: ELISA; competitor 153
Description: as §1, §2

Compared with B1, B4 is lower in “% binding vs no competitor” value: 102% for the first, 41% for the second.

First: B5
Second: B2
The “% binding vs no competitor” value of the first is lower: 40% for the first, 98% for the second.

Compared with B3, B6 is lower in “% binding vs no competitor” value: 98% for the first, 21% for the second.

target: T1, HER2ECDHis; assay: ELISA; competitor 098
Description: as §1, §2

Going from B1 to B4, the “% binding vs no competitor” value rises from 105% to 309%.

Compared with B5, B2 is higher in “% binding vs no competitor” value: 11% for the first, 98% for the second.

Going from B3 to B6, the “% binding vs no competitor” value falls from 109% to 58%.

target: T2, human epidermal growth factor receptor 2 (HER2), membrane-bound on cells (human, UniProt P04626 23-1255); assay: cell-based or functional assay

Going from B1 to B4, the “% cells killed, AU565, anti-kappa-ETA'-conjugated” value (shortened to “% cells killed, AU565”) rises from 49.9% to 61.6%.

Compared with B5, B2 is lower in “% cells killed, AU565” value: 70.3% for the first, 50.6% for the second.

Compared with B3, B6 is higher in “% cells killed, AU565” value: 58.1% for the first, 69% for the second.

B1 and B4 are within 1.5-fold of each other in “EC50 of cell kill, AU565, anti-kappa-ETA'-conjugated” value (shortened to “EC50 of cell kill, AU565”): 35.6 ng/mL for the first, 39.4 ng/mL for the second.

B5 and B2 are within 1.5-fold of each other in “EC50 of cell kill, AU565” value: 34.9 ng/mL for the first, 46.5 ng/mL for the second.

B3 and B6 are within 1.5-fold of each other in “EC50 of cell kill, AU565” value: 27 ng/mL for the first, 34.5 ng/mL for the second.

target: T2, human epidermal growth factor receptor …; assay: cell-based or functional assay; remark: another data set of the same source

Compared with B1, B2 is higher in “% cells killed, A431, anti-kappa-ETA'-conjugated” value: 34% for the first, 83.3% for the second.

In the case of B3, the “% cells killed, A431, anti-kappa-ETA'-conjugated” value is reported as 50.5%.

With B2 the “EC50 of cell kill, A431, anti-kappa-ETA'-conjugated” value was roughly 9.86 ng/mL.

target: T1, HER2ECDHis; assay: ELISA; competitor F5
Description: as §1, §2

Going from B4 to B5, the “% binding vs no competitor” value falls from 379% to 86%.

In the case of B6, the “% binding vs no competitor” value is reported as 88%.

target: T1, HER2ECDHis; assay: ELISA; competitor 091
Description: as §1, §2

Going from B1 to B2, the “% binding vs no competitor” value falls from 105% to 15%.

In the case of B3, the “% binding vs no competitor” value is reported as 104%.

target: T1, HER2ECDHis; assay: ELISA; competitor 127
Description: as §1, §2

Compared with B4, B5 is lower in “% binding vs no competitor” value: 30% for the first, 15% for the second.

B6 was tested, and the “% binding vs no competitor” value was 11%.

target: T1, HER2ECDHis; assay: ELISA; competitor pert
Description: as §1, §2

First: B1
Second: B4
The “% binding vs no competitor” value of the first is lower: 101% for the first, 288% for the second.

First: B5
Second: B2
The “% binding vs no competitor” value of the first is higher: 112% for the first, 5% for the second.

B3 was tested, and the “% binding vs no competitor” value was 101%.

target: T1, HER2ECDHis; assay: ELISA; competitor 129
Description: as §1, §2

Going from B1 to B2, the “% binding vs no competitor” value falls from 106% to 78%.

In the case of B3, the “% binding vs no competitor” value is reported as 104%.

target: T1, HER2ECDHis; assay: ELISA; competitor tras
Description: as §1, §2

Going from B1 to B4, the “% binding vs no competitor” value rises from 19% to 353%.

Going from B5 to B2, the “% binding vs no competitor” value falls from 111% to 99%.

Compared with B3, B6 is higher in “% binding vs no competitor” value: 74% for the first, 102% for the second.

target: T1, HER2ECDHis; assay: ELISA; competitor 132
Description: as §1, §2

Going from B4 to B5, the “% binding vs no competitor” value rises from 32% to 79%.

For B6, the “% binding vs no competitor” value was 44%.

target: T1, HER2ECDHis; assay: ELISA; competitor 169
Description: as §1, §2

Compared with B1, B2 is higher in “% binding vs no competitor” value: 45% for the first, 99% for the second.

For B3, the “% binding vs no competitor” value was 73%.

target: T1, HER2ECDHis; assay: ELISA; competitor 025
Description: as §1, §2

Compared with B1, B2 is lower in “% binding vs no competitor” value: 98% for the first, 13% for the second.

In the case of B3, the “% binding vs no competitor” value is reported as 106%.

target: T2, human epidermal growth factor receptor …; assay: cell-based or functional assay; remark: another data set of the same source

Going from B1 to B4, the “Maximal MFI, fab-CypHer5E internalization, AU565” value (from here on “Maximal MFI”) rises from 38800 MFI to 112000 MFI.

Compared with B5, B2 is lower in “Maximal MFI” value: 92400 MFI for the first, 50700 MFI for the second.

Compared with B3, B6 is higher in “Maximal MFI” value: 71100 MFI for the first, 138000 MFI for the second.

Compared with B4, B2 is 2.9-fold higher in “EC50, fab-CypHer5E internalization, AU565” value: 11.4 ng/mL for the first, 33 ng/mL for the second.

First: B3
Second: B6
The “EC50, fab-CypHer5E internalization, AU565” value of the first is 3.2-fold higher: 30.5 ng/mL for the first, roughly 9.68 ng/mL for the second.

target: T1, HER2ECDHis; assay: ELISA; competitor 159
Description: as §1, §2

Going from B4 to B5, the “% binding vs no competitor” value falls from 131% to 6%.

In the case of B6, the “% binding vs no competitor” value is reported as 8%.
